The values below come from paper PMC9241661.

This assay concerns the target endogenous PTEN-induced kinase 1 (PINK1) (human (endogenous in Huh7)) (UniProt Q9BXM7). Briefly: proximity ligation.
Chain of UniProt Q9BXM7 (Q9BXM7 78-581): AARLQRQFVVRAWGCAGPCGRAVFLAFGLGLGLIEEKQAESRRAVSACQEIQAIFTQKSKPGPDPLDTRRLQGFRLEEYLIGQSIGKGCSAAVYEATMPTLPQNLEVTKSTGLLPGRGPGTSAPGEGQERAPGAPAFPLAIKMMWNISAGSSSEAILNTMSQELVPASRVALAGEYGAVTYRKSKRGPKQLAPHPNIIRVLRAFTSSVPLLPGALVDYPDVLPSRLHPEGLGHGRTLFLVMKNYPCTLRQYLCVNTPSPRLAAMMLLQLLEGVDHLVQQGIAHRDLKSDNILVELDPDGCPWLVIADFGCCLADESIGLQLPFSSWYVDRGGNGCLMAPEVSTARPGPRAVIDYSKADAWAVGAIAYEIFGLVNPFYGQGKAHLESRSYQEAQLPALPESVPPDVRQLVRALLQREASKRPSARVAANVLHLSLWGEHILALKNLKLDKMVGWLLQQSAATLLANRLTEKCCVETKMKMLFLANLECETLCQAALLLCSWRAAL

Substance “JEV-NS4A made in JEV-infected Huh7 cells (from UniProt P27395 2124-2249) (natural protein)” showed a fluorescent dots per cell (PLA) (fluorescent dots per cell) of 20.
